Test results taken from publication doi:10.1101/808618 (bioRxiv, 2020).
Substitutions are numbered along the chain they refer to. Numbers in names are those of the source.

B1: PfGMPS_E555L (enzyme, Plasmodium falciparum)
chain: MEGEEYDKILVLNFGSQYFHLIVKRLNNIKIFSETKDYGVELKDIKDMNIKGVILSGGPYSVTEAGSPHLKKEVFEYFLEKKIPIFGICYGMQEIAVQMNGEVKKSKTSEYGCTDVNILRNDNINNITYCRNFGDSSSAMDLYSNYKLMNETCCLFENIKSDITTVWMNHNDEVTKIPENFYLVSSSENCLICSIYNKEYNIYGVQYHPEVYESLDGELMFYNFAYNICKCKKQFDPIRYHELELKNIEKYKHDHYVIAAMSGGIDSTVAAAYTHKIFKERFFGIFIDNGLLRKNEAENVYTFLKSTFPDMNITKIDASENFLSNLQGVTDPEQKRKIIGKLFIEEFEKAVNNIDIDINKTFLLQGTLYPDIIESKCSKNLSDTIKTHHNVGGLPKNLKFKLFEPFKYLFKDDVKTLSRELNLPEEITNRHPFPGPGLAIRVIGEINKHKLNILREVDDIFINDLKQYGLYNQISQAFAVLLSSKSVGVRGDARSYDYVCVLRAVKTSSFMTANWYQIPYDILDKITTRILSEVKGVNRILYDVSSKPPATIEFL
B2: PfGMPS R25L (enzyme, Plasmodium falciparum)
chain: B1 chain with R25L, L555E
B3: PfGMPS_E213A (enzyme, Plasmodium falciparum)
chain: B1 chain with E213A, L555E
B4: PfGMPS K160L (enzyme, Plasmodium falciparum)
chain: B1 chain with K160L, L555E
B5: PfGMPS K376L (enzyme, Plasmodium falciparum)
chain: B1 chain with K376L, L555E
B6: PfGMPS_H388A (enzyme, Plasmodium falciparum)
chain: B1 chain with H388A, L555E
B7: PfGMPS_K386L (enzyme, Plasmodium falciparum)
chain: B1 chain with K386L, L555E
B8: PfGMPS_K24L (enzyme, Plasmodium falciparum)
chain: B1 chain with K24L, L555E
B9: PfGMPS_T387A (enzyme, Plasmodium falciparum)
chain: B1 chain with T387A, L555E

Biological target: the molecule itself
Assay: SEC
B1: binds. B2: binds. B3: binds. B4: binds. B5: binds. B6: binds. B7: binds. B8: binds. B9: binds.
